Reference: patent US20240174744A1 (SCIRHOM, published 2024)
Substitutions are numbered along the chain they refer to.

B1: antibody 34 (antibody, V domains shown)
VH: QVTLKESGPGILQPSQTLSLTCSFSGFSLSTFSLGVGWIRQSSGKGLEWLAHIWWDDEKYYNPALKSRLTISKDTSKNQVFLKIANVDAADTATYYCARAYYSKSYYALDYWGQGTSVTVSS
VL: DIQMTQSPSSLSASLGERVSLTCRASQEISGYLSWLQQKPDGTIKRLIYAASTLDSGVPKRFSGSRSGSDYSLAISSLESEDFADYYCLQYANFPFTFGSGTKLEIK
notes: Mouse IgG, kappa light chain; also called clone #34; m34
B2: antibody 43 (antibody, V domains shown)
VH: QVALKESGPGILQPSQTLSLTCSFSGFSLSTFGMGVGWIRQSSGKGLEWLANIWWDDDKYYNPALKSRLTISKDASKNQAFLKIANVDTADTATYYCARIGNYGSNYWYFDVWGTGTTVTVSS
VL: QIVLTQSPAIMSASPGERVTMTCSANSRISYMYWYQQKPGSSPRLLIYDTSNLASGVPVRFSGSGSGTSYSLTISRMEAEDAATYNCQQWSSYPLTFGAGTKLELK
notes: Mouse IgG, kappa light chain; also called clone #43
B3: antibody 5 (antibody, V domains shown)
VH: B2 VH with A3T, S42P, N52H, D58E, P63S, D74A, A75T, G101S, D111N
VL: QVVLTQSPALMSASPGEKVTMTCSAGSSVSCMYWYQQKPGSSPRVLIYDTSNLASGVPARFTGSGSGTSYSLTISRMEAEDAASYYCQQWNSYPLTFGAGTKLELK
notes: Mouse IgG, kappa light chain; also called clone #5; purified antibody 5
B4: antibody 42 (antibody, V domains shown)
VH: B2 VH with A3T, F24L, M34R, S42P, N52H, D58E, A75T, A80V, K83R, G101Q
VL: B2 VL with Q1L, R18K, S24G, N26T, Y33F, L45V, M77V, A82V, N86Y, S91N
notes: Mouse IgG, kappa light chain; also called clone #42; m42
B5: antibody 44 (antibody, V domains shown)
VH: B2 VH with A3T, S42P, G44E, N52H, A75T, A80I, A85T, D91E, A98S
VL: QIVLTQSPAVMSASPGEKVTMTCTASSSVYYMYWYQQTPGSSPRLLIYDTSNLASGVPVRFSGSGSGTSYSLTISRMEAEDAATYYCQQWNTYPLTFGAGTKLELK
notes: Mouse IgG, kappa light chain; also called clone #44; m44
B6: antibody 22 (antibody, V domains shown)
VH: B2 VH with A3T, S42P, N52H, D58E, P63S, D74A, A75T, A80V, G101S, D111N
VL: B3 VL with C31Y, S84T
notes: Mouse IgG, kappa light chain; also called clone #22; m22
B7: antibody 16 (antibody, V domains shown)
VH: QVTLKESGPGILQPSQTLSLTCSFSGFSLSTFALGVGWIRQPSGRGLEWLAHIWWDDDKYYNPALKSRLTISKDTSKNHVFLKIANVDTADTATYYCARITTYYYGMDYWGQGTSVTVSS
VL: DIVLSQSPATLSVTPGDSVSLFCRASQSIGNHLHWYQQESHASPRLLIKYASQSISGIPSRFSGSGSGTDFTLSINSVETEDFGMYFCQQSYNWPLTFGAGTKLELK
notes: Mouse IgG, kappa light chain; also called clone #16; m16
B8: antibody 3 (antibody, V domains shown)
VH: QVTLKESGPGILQPSQTLSLTCSFSGFSLTTFAMGIGWVRQPSGKGLEWLAHIWWDGEKYNNPVLKSRLTISKDTSKNQVFLRIANVDTPDTATYYCARISSIYYIIDNWGQGTSVTVSS
VL: B7 VL with S5T, D17H, F22S, G30S, H32N, Q38K, E39K, A42E, A51V
notes: Mouse IgG, kappa light chain; also called clone #3; purified antibody 3
B9: antibody 50 (antibody, V domains shown)
VH: QVQLQQSGAELVRPGASVKVSCKASGYAFSNYLIEWVKQRPGQGLEWIGVINPGSGFTKYNEKFKGKATLTADKSSSTAYMQLSSLTSEDSAVYFCARGLYRAMDYWGQGTSVTVSS
VL: DIQMTQSPASQSASLGESVTITCLASQTIGTWLAWYQQKPGKSPQLLIYAAASLADGVPSRFSGGGSGTKFSFKISSLQAEDFVNYYCQQIYSTPYTFGGGTKLEIK
notes: Mouse IgG, kappa light chain; also called clone #50; purified antibody 50

What follows are binders tested against T1, miR2-FL-WT-T7 (mouse iRhom2 full length wild type C-terminally tagged with 3 consecutive copies of the T7 … (mouse, UniProt Q80WQ6 1-827)) (assay: FACS on cells of the row mouse iR2 wild type, vs human iR2 wild type = 100%).
T1 construct: also called mouse iRhom2 variant expressed by MEF-DKO-miR2-FL-WT-T7 cells
T1 sequence: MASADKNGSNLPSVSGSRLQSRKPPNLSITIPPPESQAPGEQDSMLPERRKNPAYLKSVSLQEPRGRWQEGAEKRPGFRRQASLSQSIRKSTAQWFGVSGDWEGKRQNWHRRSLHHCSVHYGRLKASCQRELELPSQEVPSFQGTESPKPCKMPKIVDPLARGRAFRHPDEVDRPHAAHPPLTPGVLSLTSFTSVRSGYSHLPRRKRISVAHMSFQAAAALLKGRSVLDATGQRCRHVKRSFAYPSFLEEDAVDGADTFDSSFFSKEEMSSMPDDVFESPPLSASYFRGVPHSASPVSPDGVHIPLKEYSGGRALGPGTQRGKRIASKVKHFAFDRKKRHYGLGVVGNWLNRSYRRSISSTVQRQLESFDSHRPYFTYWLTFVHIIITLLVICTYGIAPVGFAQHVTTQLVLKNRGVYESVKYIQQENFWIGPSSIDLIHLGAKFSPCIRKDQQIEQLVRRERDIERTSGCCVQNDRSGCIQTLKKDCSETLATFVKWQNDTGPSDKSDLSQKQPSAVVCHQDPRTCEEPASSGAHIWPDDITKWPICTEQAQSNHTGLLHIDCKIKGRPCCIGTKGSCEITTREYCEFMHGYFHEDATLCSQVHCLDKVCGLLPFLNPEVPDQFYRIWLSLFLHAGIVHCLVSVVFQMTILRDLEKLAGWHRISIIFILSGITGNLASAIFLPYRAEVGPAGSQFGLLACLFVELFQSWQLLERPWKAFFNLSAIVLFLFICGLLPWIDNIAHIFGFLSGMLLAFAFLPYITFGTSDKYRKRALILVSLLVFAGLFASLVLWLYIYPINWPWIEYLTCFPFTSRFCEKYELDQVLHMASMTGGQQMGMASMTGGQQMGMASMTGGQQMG
Source text: In brief, immortalized MEF-DKO-hiR2-FL-WT-T7 cells, MEF-DKO-miR2-FL-WT-T7 cells and MEF-DKO-hiR2-FL-R441K-T7, MEF-DKO-hiR2-FL-K443R-T7, MEF-DKO-hiR2-FL-V459I-T7, MEF-DKO-hiR2-FL-G481Q-T7, MEF-DKO-hiR2-FL-L488R-T7, MEF-DKO-hiR2-FL-L493I-T7, MEF-DKO-hiR2-FL-D496T-T7, MEF-DKO-hiR2-FL-H505R-T7, MEF-DKO-hiR2-FL-Q512L-T7, MEF-DKO-hiR2-FL-R513K-T7, MEF-DKO-hiR2-FL-D528N-T7, MEF-DKO-hiR2-FL-P533-T7, MEF-DKO-hiR2-FL-M534S-T7, MEF-DKO-hiR2-FL-G540S-T7, MEF-DKO-hiR2-FL-R543Q-T7, MEF-DKO-hiR2-FL-T544P-T7, MEF-DKO-hiR2-FL-G546A-T7, MEF-DKO-hiR2-FL-A547V-T7, MEF-DKO-hiR2-FL-R582Q-T7, MEF-DKO-hiR2-FL-F588L-T7, MEF-DKO-hiR2-FL-M591I-T7, MEF-DKO-hiR2-FL-E594K-T7, MEF-DKO-hiR2-FL-E626D-T7, MEF-DKO-hiR2-FL-L657I-T7, and MEF-DKO-hiR2-FL-H835Y-T7 cells were harvested with 10 mM EDTA in PBS, washed and resuspended in FACS buffer (PBS, 3% FBS, 0.05% sodium azide), and seeded in Nunc U-bottom 96-well plates (Thermo Fisher Scientific, USA) at approximately 3×10⁵ cells per well. To pellet cells and remove supernatants, the plates were centrifuged at 1,500 rpm and 4° C. for 3 minutes. For primary staining, cells were resuspended in 100 μl per well of either FACS buffer alone (controls) or the purified antibodies 3, 5, 16, 22, 34, 42, 43, 44, 48, and 50 of the present disclosure at 3 μg/ml FACS buffer and incubated on ice for 1 hour. Afterwards, plates were centrifuged at 1,500 rpm and 4° C. for 3 minutes and washed twice with 200 μl per well of FACS buffer. For secondary staining, cells were spun down and resuspended in 100 μl per well of PE-conjugated goat anti-mouse IgG F(ab′)2 detection fragment (Dianova, Germany) diluted 1:100 in FACS buffer. Protected from light, the cell suspensions were incubated on ice for 1 hour. Plates were then centrifuged at 1,500 rpm and 4° C. for 3 minutes and washed three times with 200 μl per well of FACS buffer. Finally, cells were resuspended in 150 μl per well of FACS buffer and analyzed using a BD Accuri™ C6 Plus flow cytometer (Becton Dickinson, Germany).

| Binder | grade of loss of binding vs wild type |
| --- | --- |
| B1 | 3 grade (3 => 95% loss of binding vs wild type) |
| B2 | 3 grade (3 => 95% loss of binding vs wild type) |
| B3 | 3 grade (3 => 95% loss of binding vs wild type) |
| B4 | 3 grade (3 => 95% loss of binding vs wild type) |
| B5 | 3 grade (3 => 95% loss of binding vs wild type) |
| B6 | 3 grade (3 => 95% loss of binding vs wild type) |
| B7 | 3 grade (3 => 95% loss of binding vs wild type) |
| B8 | 3 grade (3 => 95% loss of binding vs wild type) |
| B9 | 3 grade (3 => 95% loss of binding vs wild type) |
